Data as given in publication PMC7443692.

Molecular target: SARS-CoV-2 Spike glycoprotein trimer immunogen (stabilized, soluble ectodomain) (SARS-CoV-2 | not stated) (UniProt P0DTC2)
Test: negative stain electron microscopy

With “SARS-CoV-2 Spike glycoprotein trimer immunogen (stabilized, soluble ectodomain) (from UniProt P0DTC2 14-1208)” the stoichiometry N was 3.
